The target in one assay is GST-USP12WT (24-370) (human, UniProt O75317 24-370). Kind of assay: SPR. On the technique in general: In SPR one partner is held on a chip, and binding of the other changes the refractive index at the surface.
The target of the next assay is T1, His-USP1 (21-785) (human, UniProt O94782 21-785).
T1 sequence (looked up): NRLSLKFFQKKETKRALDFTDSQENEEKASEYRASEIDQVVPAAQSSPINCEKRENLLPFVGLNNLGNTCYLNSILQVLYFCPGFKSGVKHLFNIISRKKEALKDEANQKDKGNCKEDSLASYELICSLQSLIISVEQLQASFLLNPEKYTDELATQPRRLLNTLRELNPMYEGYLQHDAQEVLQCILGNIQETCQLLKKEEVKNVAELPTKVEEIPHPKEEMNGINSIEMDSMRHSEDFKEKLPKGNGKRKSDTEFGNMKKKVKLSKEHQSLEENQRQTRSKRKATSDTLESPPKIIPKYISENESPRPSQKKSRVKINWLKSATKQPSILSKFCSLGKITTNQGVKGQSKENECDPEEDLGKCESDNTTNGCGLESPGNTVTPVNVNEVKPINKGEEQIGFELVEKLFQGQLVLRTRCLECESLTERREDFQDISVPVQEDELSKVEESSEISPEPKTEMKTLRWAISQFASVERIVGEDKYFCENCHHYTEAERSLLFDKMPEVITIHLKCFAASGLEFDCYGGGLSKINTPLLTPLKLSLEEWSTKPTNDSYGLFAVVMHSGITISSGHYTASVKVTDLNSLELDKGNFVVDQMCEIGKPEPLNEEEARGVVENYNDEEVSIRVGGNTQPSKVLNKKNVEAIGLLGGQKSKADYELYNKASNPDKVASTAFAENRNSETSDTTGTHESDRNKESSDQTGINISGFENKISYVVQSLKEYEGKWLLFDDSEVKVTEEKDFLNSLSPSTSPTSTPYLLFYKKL
Kind of assay: SEC-MALS. For orientation: In gel filtration, larger molecules generally elute earlier.

Sequence of GST-USP12WT (24-370) (O75317 24-370): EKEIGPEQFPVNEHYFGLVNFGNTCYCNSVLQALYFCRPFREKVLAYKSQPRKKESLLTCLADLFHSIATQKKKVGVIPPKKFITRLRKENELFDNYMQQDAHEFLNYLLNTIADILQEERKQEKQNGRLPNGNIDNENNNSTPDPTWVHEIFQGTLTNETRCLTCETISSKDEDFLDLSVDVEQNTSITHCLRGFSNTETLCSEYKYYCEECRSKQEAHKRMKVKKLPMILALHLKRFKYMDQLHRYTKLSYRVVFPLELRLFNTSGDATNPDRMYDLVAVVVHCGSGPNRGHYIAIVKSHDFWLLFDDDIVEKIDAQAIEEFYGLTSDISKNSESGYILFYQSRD

B1: UAF1FL, UAF1 (9-677) (natural protein)
chain: not shown
With B1, the “Kd of the second binding event” value with GST-USP12WT (24-370) came out at 325 nM. For the same molecule, the “stoichiometry N” value in the assay with His-USP1 (21-785) was 2 UAF1 per USP1.

What is called stoichiometry N is a count of units in the complex or per binding partner.

The record behind these values is paper PMC5131612 (Journal of Structural Biology, 2016).
